Data as given in patent US20240360436A1 (DDBIO, published 2024).

These binders were tested against T1, CD40 antigen (biotin-label-free, AcroBio Cat #: CDO-H5253) (UniProt P25942 21-193) (assay: ELISA, CD40 antigen coated, anti-flag-HRP, OD405).
T1 construct: Bought protein; A biotin-labeled form (CDO-H82E8) was used for panning only; also called CD40 antigens
T1 sequence (P25942 21-193 limits assumed): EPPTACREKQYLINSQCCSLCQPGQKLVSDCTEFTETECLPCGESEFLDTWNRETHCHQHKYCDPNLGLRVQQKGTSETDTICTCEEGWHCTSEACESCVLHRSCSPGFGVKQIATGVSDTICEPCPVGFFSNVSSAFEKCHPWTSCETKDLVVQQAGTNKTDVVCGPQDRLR

ELISA reading [OD405]	Binder
3.15	DDBK003-2 (Fab, V domains shown, Light-chain replacement clone of Selicrelumab; also expressed as full-length antibody (KLC/IgG1)) VH: not shown VL: DIQMTQSPSSVSASVGDRVTITCRATQDIRPWLAWYQQRPGKAPQLLIYRTSTLQSGVPSRFSGSGSGTDFTLTISNLQPEDFATYYCQHAKIFPITFGQGTRLEIKR
2.87	DDBK003-3 (Fab, V domains shown, Light-chain replacement clone of Selicrelumab; also expressed as KLC/IgG1) VH: not shown VL: DIQMTQSPSSVSASIGDRVTVTCRASQAIGSWVAWYQQKPGKVPKLLIYSASKIQSGVPSRFSGSGSGTDFTLTISSLQPEDFATYYCQQANSFPITFGQGTLLEIKR
2.92	Selicrelumab (Fab, V domains shown, Also expressed as full-length antibody; also called #1; Positive antibody) VH: not shown VL: DIQMTQSPSSVSASVGDRVTITCRASQGIYSWLAWYQQKPGKAPNLLIYTASTLQSGVPSRFSGSGSGTDFTLTISSLQPEDFATYYCQQANIFPLTFGGGTKVEIKR
2.02	DDBK003-14 (Fab, V domains shown, Light- and heavy-chain double replacement clone of Selicrelumab; also expressed as KLC/IgG1) VH: QVQLVESGAEVKKPGSSVKVSCKASGGTFSASAISWVRQAPGQGLEWMGGIFPILGSANYAQKFQGRVTITADESTSTAYMELSSLRSEDTAVYYCARDLAGYNYGFFGYWGRGTLVTVSS VL: DIQMTQSPSSVSASVGDRVTITCRASQGINSWLAWYQQKPGRAPKLLIYTASTLQSGVPSRFSGSGSGTDFTLTISSLQPEDFATYYCQQAKSFPLTFGGGTKVEIKR
3.22	DDBK003-12 (Fab, V domains shown, Heavy-chain replacement clone of Selicrelumab; also expressed as KLC/IgG1) VH: QVQLQESGPGLVKPSETLSLTCNVSGYSITRGYFWGWIRQPPGKGLEWIGSIYQSGAARYNPSLQSRVTLSVDTSKNQFSLKLTSVTAADTAVYYCARDAATQVRGSWYNGYYFDPWGQGTLVTVSS VL: DIQMTQSPSSVSASVGDRVTITCRASQGIYSWLAWYQQKPGKAPNLLIYTASTLQSGVPSRFSGSGSGTDFTLTISSLQPEDFATYYCQQANIFPLTFGGGTKVEIKR
3.33	DDBK003-13 (Fab, V domains shown, Heavy-chain replacement clone of Selicrelumab; also expressed as KLC/IgG1) VH: EVQLVQSGPGLVRPSETLSLTCSASGGSVSSASDLWGWIRQAPGKGLEWIGNIYYLGKTDYNPSLGGRVSITMDKSKNQFSLRLSSVTAADTAMYYCAKRSTLPMRGFFVSWGQGTTVTVSS VL: DIQMTQSPSSVSASVGDRVTITCRASQGIYSWLAWYQQKPGKAPNLLIYTASTLQSGVPSRFSGSGSGTDFTLTISSLQPEDFATYYCQQANIFPLTFGGGTKVEIKR
1.93	DDBK003-16 (Fab, V domains shown, Light- and heavy-chain double replacement clone of Selicrelumab; also expressed as KLC/IgG1) VH: QVQLVESGAEVKKPGSSVKVSCKASGGTFSASAISWVRQAPGQGLEWMGGIFPILGSANYAQKFQGRVTITADESTSTAYMELSSLRSEDTAVYYCARDLAGYNYGFFGYWGRGTLVTVSS VL: DIQMTQSPSSVSASVGDRVTITCRASQGISSWLAWYQQKPGKAPKLLIYAASSLQSGVPSRFSGSGSGTDFTLTISSLQPEDFATYYCQQANSFPLTFGGGTKLEIKR
